“Also recorded” adds a separate entry of the source.
Assays:
PAR4 = target: T1, PAR4 (Homo sapiens, UniProt Q96RI0); test: Functional bioassays for PAR4 inhibitory function; assay type: cell-based
T1 construct: host or cells: HEK293 cells transfected with FLAG-PAR4 and/or isolated human platelets
T1 sequence (Q96RI0 18-385): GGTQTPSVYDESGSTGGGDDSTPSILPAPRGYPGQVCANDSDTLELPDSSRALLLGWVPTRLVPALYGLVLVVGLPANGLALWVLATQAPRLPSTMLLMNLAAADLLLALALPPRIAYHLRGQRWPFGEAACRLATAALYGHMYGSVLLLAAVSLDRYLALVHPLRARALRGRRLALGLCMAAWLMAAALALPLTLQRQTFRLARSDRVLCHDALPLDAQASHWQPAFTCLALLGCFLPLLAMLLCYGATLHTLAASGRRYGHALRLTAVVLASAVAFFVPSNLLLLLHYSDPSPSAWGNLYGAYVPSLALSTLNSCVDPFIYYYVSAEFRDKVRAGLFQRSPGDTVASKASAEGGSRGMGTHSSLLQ

hPAR4 peptide = target: T2, hPAR4 peptide (Homo sapiens, UniProt Q96RI0); test: ELISA of purified mAbs on hPAR4 peptide; assay type: binding; conditions: dilutions of purified mAbs
T2 construct: host or cells: synthetic peptide
Protocol: (§1) The kinetics of the binding interaction between the mAbs and hPAR4 was measured using Surface Plasmon Resonance (SPR; Biacore) by two different methods: 1. Anti-mouse Fc mAb capture method and 2. Streptavidin (SA) chip to capture biotinylated peptide. The ka(on) rate and kd(off) rates and KD were measured and fitted to a Langmuir model using the Biacore evaluation software.
The experiment was completed with purified mAbs diluted in PBS instead of hybridoma supernatants.
The reactivity of seven purified anti-hPAR4 mAbs was analysed by ELISA (see Table 4).

[1] = system: PAR4-120Ala and PAR4-120Thr variants; test: PAR4 thrombin cleavage assay on PAR4 variants in HEK293T cells; assay type: cell-based, human; conditions: for inhibition of thrombin cleavage of Ala120 and Thr120 PAR4 variants: pre-incubation 1, 10 or 100 μg/ml before thrombin
Protocol: 1×10^6 HEK293T cells (in Dulbecco's modified eagle's medium+10% foetal calf serum) were seeded onto 12-well plates 24 hours before transfection. When confluent, they were transiently transfected with 1 μg of DNA from one of the PAR4 variants (expression vectors pBJ-FLAG-PAR4-120A-296F or pBJ-FLAG-PAR4-120T-296F; Edelstein et al (2014) Blood 124(23):3450-8) plus 4 μL of Lipofectamine 2000, as per manufacturer's instructions. Forty-eight hours after transfection, cells were harvested and washed twice with PBS, then resuspended to a count of 1×10^6/mL. Cells (50 μL assays/0.5×10^5 cells per condition) were then pre-treated with either 1, 10 or 100 μg/mL of 5RC3 or sub-clone 5A.RC3.F10b.H4b or 100 μg/mL matched Isotype control (mouse IgG1) for 15 minutes at 37° C. Cells were then stimulated with 2 U/mL of thrombin for 10 minutes. The reaction was stopped by the addition of 4 U/mL hirudin. Cells were then washed once and resuspended with PBS containing a 1:200 dilution of FITC anti-FLAG antibody (Sigma, clone M2) and incubated for 1 hour at room temperature in the dark. Cells were then fixed with 1% paraformaldehyde (final concentration) and read on a FACSCalibur flow cytometer to determine % of FL1/FITC-Positive events. Data were normalised against the resting sample (100%, no thrombin treatment).
In order to determine whether the anti-PAR4 clones could inhibit the effects of thrombin on PAR4 cleavage, in vitro inhibition assays were performed. HEK293T cells were transiently transfected with the PAR4-120Ala (A) or PAR4-120Thr (T) variants which contained a FLAG epitope upstream of the thrombin cleavage site. Cleavage of PAR4 by thrombin was measured by loss of Flag tag from the PAR4 expressing HEK293 cells using flow cytometry.
Cells were stimulated with increasing doses of thrombin (0.1-2 U/ml) and the amount of thrombin cleavage was measured as a loss of FLAG epitope using a FITC-conjugated anti-FLAG antibody by flow cytometry.

human platelets = test: Thrombin-induced platelet aggregation assay; assay type: cell-based
Protocol: Platelet aggregation was measured by light transmission aggregometry in a 96-well plate format. Human isolated platelets (2×10^8/ml) were pre-treated for 10 mins at 37° C. with dimethylsulfoxide (DMSO) (1% v/v), the PAR1 antagonist vorapaxar (90 nM), the anti-PAR4 antibody 5RC3 (20-100 μg/ml), or a combination of vorapaxar and 5RC3. Platelets were treated with one of thrombin (0.1 U/ml) and aggregation was analysed at 37° C. in a FLUOstar OPTIMA plate reader (BMG Labtech) using a 595 nm excitation filter, for a period of 50 min (10 read cycles with 5 min double orbital shake period between each read). Optical density was normalised against the blank (maximum) and unstimulated platelets (minimum) and expressed as % maximum.
Human isolated platelets of different PAR4 variants were assessed for their responses to PAR4 agonists.
The binding of five anti-PAR4 monoclonal antibodies to human platelets was examined by flow cytometry.

[2] = target: T3, hPAR4-biotinylated peptide (Homo sapiens, UniProt Q96RI0); test: SA chip biotin peptide SPR (Biacore, streptavidin capture); assay type: binding
T3 construct: host or cells: synthetic peptide
Protocol: Biacore analysis was performed on a Biacore T200 using two different methods either an anti-mouse Fc capture approach or using a similar method as described above using the ProteoOn system.
A series S sensor chip SA was conditioned using the manufacturers recommended protocol and immobilised with 1 ug/ml hPAR4-biotinylated peptide on FC2 and hPAR1-biotinylated peptide as a control onto FC1. […] Blank injections of buffer alone were also performed. All injections were performed in duplicate and in a random order. After each capture/injection/dissociation cycle the chip was regenerated with a 30 second injection of 0.1M Glycine pH2.0.
For the mAb capture method low levels of ligand mAb and analyte hPAR4 were used in an attempt to produce a 1:1 binding interaction, this method has been used successfully to measure kinetics and affinity KD's (Kamat V and Rafique A (2017) Analytical Biochemistry 530:75-86), despite using a whole IgG.
as §1

human isolated platelets = test: Platelet phosphatidylserine exposure (annexin V binding); assay type: cell-based; conditions: pre-treatment 5 min; regardless of donor genotype
Protocol: Platelet surface phosphatidylserine (PS) exposure was determined by measuring annexin V binding. Human isolated platelets (5×10^7/ml) were pre-treated with 5A.RC3 (5 mins) at the concentrations indicated and were incubated with Alexa Fluor 488-conjugated annexin-V (1:100) prior to stimulation with thrombin. After stimulation, platelets were resuspended in modified Tyrode's buffer for flow cytometry analysis (FACSCalibur, BD Biosciences).
Pro-coagulant activity in isolated human platelets was examined by measuring phosphatidylserine (PS) exposure in response to stimulation with PAR4-AP or thrombin (1 U/ml) The percentage of annexin V positive cells was measured. The platelets were pre-incubated with 5A.RC3 for 5 mins. […] The 10 min (final data point) is shown for simplicity.

T3 sequence (Q96RI0 with tags, fused parts or gaps limits assumed): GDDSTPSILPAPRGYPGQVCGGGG

B1: 5A.RC3: anti-PAR4 monoclonal antibody, IgG2a/K, VH SEQ ID NO:11 and VL SEQ ID NO:12 (antibody, V domains shown)
VH: QVQLVESGGGVVQPGRSLRLSCAASGFTLSNYGMHWVRQAPGKGLEWVSVIWYDGSNKHYADSVKGRFTISRDNSKNTLYLQMNSLRAEDTAVYYCARESIVEVLPPFDYWGQGTLVTVSS
VL: KIVLTQSPGTLSLSPGERVTLSCRASQRVRNNYLAWFQQKPGQAPRLFIYGASSRATGIPDRFSGSGSGTDFIFTISRLEPEDFAVYYCQQYGNSYTFGQGTKLEIK
modifications: VH of 5A.RC3; VL of 5A.RC3
In the case of B1, the “PAR4 inhibitory (antagonist) function” value (PAR4) is reported as “demonstrated PAR4 inhibitory function; also recorded: antagonist”, the “reactivity with hPAR4 peptide by ELISA” value (hPAR4 peptide) is reported as “very similar binding curves” and the “reversal of inhibition by the immunising peptide” value [1] is reported as “reversed”. The “inhibition of thrombin cleavage of Ala120 and Thr120 PAR4 variants” value [1] was “near complete inhibition of thrombin cleavage; also recorded: significantly inhibited thrombin induced PAR4 cleavage”, the “inhibition of thrombin cleavage of Ala120 and Thr120 PAR4 variants” value ([1]; listed as 5A.RC3.H4b) was “effectively inhibited cleavage of PAR4 expressed on the surface of HEK293 cells in a dose dependent manner” and the “inhibition of platelet aggregation at the highest concentration tested” value (human platelets; 0.1 U/ml thrombin) was “Near maximal inhibition”. The “inhibition of thrombin-induced platelet aggregation” value (human platelets; in the presence of a PAR1 antagonist, genotypes TT, AT, AA) was “inhibited in a dose dependent manner”, the ka [2] was 1.32e+06 M⁻¹ s⁻¹ and the kd [2] was 0.000417 s⁻¹. For the same molecule, the “inhibition of thrombin-induced phosphatidylserine exposure” value (human isolated platelets) was “dose-dependently inhibited thrombin-induced phosphatidylserine exposure; also recorded: inhibited thrombin-induced phosphatidylserine exposure in a dose dependent manner”.

Reference: patent publication US12441790B2, “Binding proteins to the human thrombin receptor, PAR4” (MONASH UNIVERSITY, priority 2017, dated 2025)
